Test results reported in patent publication US20030077800A1 (HORMOS MEDICAL, published 2003).

Key:
[1] = target: rat androgen receptor expressed from pSG-rAR (rat) (UniProt P15207); test: cell-based or functional assay
[2] = target: T1, LexA-AR ZFR (AR amino acids 554-644) (human, UniProt P10275 554-644); test: cell-based or functional assay
T1 sequence (looked up): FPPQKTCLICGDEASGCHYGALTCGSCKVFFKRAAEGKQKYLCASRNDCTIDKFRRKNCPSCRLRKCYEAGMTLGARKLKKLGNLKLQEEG

[3] = target: T2, LexA-HLBD (amino acids 624-919 of AR) (UniProt P10275 624-919); test: cell-based or functional assay
T2 sequence (looked up): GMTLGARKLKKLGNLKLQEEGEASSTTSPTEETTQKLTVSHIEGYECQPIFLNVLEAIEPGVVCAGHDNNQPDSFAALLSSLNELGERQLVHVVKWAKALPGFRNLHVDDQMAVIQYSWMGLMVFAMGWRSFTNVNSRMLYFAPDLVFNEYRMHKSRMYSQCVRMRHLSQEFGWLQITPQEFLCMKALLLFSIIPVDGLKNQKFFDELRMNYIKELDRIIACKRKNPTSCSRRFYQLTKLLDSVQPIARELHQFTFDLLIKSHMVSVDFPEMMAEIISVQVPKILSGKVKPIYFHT

[4] = target: T3, rat AR (amino acids 3-902) fused to the DBD of Gal4 (Gal4-AR) (rat, UniProt P04386 1-147; P15207 3-902); test: mammalian two-hybrid in CV-1 cells, pG5LUC reporter
T3 construct: domain: DBD;range 3-902; Mammalian two-hybrid bait in CV-1 cells; also called Gal-AR

rat androgen receptor expressed from pSG-rAR (rat), sequence (P15207 whole entry S389L, the tested form may be a part): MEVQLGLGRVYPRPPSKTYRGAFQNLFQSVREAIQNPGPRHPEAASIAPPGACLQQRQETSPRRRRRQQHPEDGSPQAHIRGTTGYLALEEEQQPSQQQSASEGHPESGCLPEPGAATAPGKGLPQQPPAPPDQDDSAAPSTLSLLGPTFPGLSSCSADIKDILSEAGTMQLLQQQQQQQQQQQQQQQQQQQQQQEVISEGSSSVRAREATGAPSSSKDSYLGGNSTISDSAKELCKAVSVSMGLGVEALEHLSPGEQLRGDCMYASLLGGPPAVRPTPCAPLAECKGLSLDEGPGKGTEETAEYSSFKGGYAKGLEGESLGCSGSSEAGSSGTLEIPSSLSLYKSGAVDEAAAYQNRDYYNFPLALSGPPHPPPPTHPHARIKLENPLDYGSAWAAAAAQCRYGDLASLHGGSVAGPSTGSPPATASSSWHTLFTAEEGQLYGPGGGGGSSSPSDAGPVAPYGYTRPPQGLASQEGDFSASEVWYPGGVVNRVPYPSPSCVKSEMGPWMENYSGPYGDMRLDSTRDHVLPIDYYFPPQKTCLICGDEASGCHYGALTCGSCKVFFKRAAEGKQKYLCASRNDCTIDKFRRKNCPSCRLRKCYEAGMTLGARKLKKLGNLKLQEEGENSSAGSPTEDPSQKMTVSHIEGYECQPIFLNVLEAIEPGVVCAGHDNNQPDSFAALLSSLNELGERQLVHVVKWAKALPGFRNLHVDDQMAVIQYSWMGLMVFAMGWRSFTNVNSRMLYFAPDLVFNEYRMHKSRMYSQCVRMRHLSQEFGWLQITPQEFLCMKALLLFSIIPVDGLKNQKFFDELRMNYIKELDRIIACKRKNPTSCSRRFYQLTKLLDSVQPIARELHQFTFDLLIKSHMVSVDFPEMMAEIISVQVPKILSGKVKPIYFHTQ

With “FLAG-tagged ARIP4 (pFLAG-ARIP4) (from UniProt Q99NG0 1-1467)” the AR activity on the probasin promoter (pPB(-285/+32)-LUC, COS-1 cells) (% of that of AR alone) [1] was 50 to 60 and the transcriptional activity of AR on a minimal promoter (ARE4-tk-LUC, COS-1 cells) [1] was 3 fold.

B1: VP16 AD fused to ARIP4 (amino acids 86-227) (VP16 AD-ARIP4 ID) (other)
chain: RHQGKILASEDPKKKRAQKPSHMRRNIRKLLREDQLEPVTKAAQQEELERRKRLEQQRKEYAAPIPTVPLEFLPEEIVLRASDGPQLPPRVLAQEVICLDSSSGSEDEKSSRDEVIELSSGEEDTLHIVDSSESVSEEDEEE
With B1 the “reporter gene activity (beta-galactosidase, yeast two-hybrid)” value [2] was roughly 100 fold and the “reporter gene activity (beta-galactosidase, yeast two-hybrid, with androgen)” value [3] was 4 fold.

B2: VP16-ODC fusion protein (human ornithine decarboxylase fused to VP16 AD) (other)
chain: MNNFGNEEFDCHFLDEGFTAKDILDQKINEVSSSDDKDAFYVADLGDILKKHLRWLKALPRVTPFYAVKCNDSKAIVKTLAATGTGFDCASKTEIQLVQSLGVPPERIIYANPCKQVSQIKYAANNGVQMMTFDSEVELMKVARAHPKAKLVLRIATDDSKAVCRLSVKFGATLRTSRLLLERAKELNIDVVGVSFHVGSGCTDPETFVQAISDARCVFDMGAEVGFSMYLLDIGGGFPGSEDVKLKFEEITGVINPALDKYFPSDSGVRIIAEPGRYYVASAFTLAVNIIAKKIVLKEQTGSDDEDESSEQTFMYYVNDGVYGSFNCILYDHAHVKPLLQKRPKPDEKYYSSSIWGPTCDGLDRIVERCDLPEMHVGDWMLFENMGAYTVAAASTFNGFQRPTIYYVMSGPAWQLMQQFQNPDFPPEVEEQDASTLPVSCAWESGMKRHRAACASASINV
notes: Negative control in the mammalian two-hybrid assay; also called human ODC
B2: no binding [4].
